Blank lines part the entries; values can stand above or below the molecule they belong to.
Key:
S. pombe Uba1 (S. pombe) = target: T1, S. pombe Uba1 (S. pombe) (UniProt O94609)
T1 sequence: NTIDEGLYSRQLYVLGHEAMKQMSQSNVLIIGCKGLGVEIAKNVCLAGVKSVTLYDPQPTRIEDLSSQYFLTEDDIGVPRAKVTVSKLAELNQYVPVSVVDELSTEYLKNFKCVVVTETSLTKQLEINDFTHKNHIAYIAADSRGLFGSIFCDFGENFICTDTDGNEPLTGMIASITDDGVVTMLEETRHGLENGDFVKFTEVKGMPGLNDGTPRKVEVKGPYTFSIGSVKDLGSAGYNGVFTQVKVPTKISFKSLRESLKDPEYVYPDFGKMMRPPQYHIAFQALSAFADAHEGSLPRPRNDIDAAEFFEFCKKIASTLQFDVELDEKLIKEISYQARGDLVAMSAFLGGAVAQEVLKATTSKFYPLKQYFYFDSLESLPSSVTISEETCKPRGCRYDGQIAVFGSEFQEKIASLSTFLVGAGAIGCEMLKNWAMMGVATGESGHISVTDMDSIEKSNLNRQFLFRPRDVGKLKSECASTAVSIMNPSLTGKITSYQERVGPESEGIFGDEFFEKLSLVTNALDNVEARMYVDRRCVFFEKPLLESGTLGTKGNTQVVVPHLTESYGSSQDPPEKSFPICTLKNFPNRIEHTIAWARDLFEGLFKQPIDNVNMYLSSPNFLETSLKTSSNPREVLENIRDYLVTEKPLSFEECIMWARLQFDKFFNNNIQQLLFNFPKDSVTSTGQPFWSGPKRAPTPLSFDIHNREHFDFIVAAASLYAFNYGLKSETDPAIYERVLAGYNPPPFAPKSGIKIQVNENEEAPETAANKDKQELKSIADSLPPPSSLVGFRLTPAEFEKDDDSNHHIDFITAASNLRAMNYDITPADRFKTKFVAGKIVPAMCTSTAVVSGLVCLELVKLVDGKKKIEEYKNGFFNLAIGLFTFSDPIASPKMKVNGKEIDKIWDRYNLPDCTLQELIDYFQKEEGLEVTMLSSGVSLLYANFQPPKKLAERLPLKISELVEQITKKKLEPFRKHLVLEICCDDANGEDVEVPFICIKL

[1] = target: T2, S. cerevisiae Uba1 (a.a. 11–1024) (S. cerevisiae, UniProt P22515 11-1024, in the crystal: disulfide bond between the Uba1 and Cdc34 catalytic cysteines (cross-link)); assay: crystal structure; S. cerevisiae Uba1-Cdc34^Δdist held by a disulfide bond between the catalytic cysteines, mixed with Ub, 1 mM ATP and 5 mM MgCl2; crystals at 18 °C in 0.2 M ammonium sulfate, 25% PEG 3,350, 0.1 M Bis-Tris pH 6.5; 2.07 Å; two copies in the asymmetric unit; conditions: both partners purified
T2 construct: residues 11-773 and 797-1024 built in the model; Cross-linked to Cdc34 only for the crystal; not cross-linked in the thioester transfer assays; also called ScUba1; E1; source: E. coli BL21 (DE3) Codon Plus, purified (Ni-NTA, gel filtration, MonoQ)
T2 sequence (P22515 11-1024): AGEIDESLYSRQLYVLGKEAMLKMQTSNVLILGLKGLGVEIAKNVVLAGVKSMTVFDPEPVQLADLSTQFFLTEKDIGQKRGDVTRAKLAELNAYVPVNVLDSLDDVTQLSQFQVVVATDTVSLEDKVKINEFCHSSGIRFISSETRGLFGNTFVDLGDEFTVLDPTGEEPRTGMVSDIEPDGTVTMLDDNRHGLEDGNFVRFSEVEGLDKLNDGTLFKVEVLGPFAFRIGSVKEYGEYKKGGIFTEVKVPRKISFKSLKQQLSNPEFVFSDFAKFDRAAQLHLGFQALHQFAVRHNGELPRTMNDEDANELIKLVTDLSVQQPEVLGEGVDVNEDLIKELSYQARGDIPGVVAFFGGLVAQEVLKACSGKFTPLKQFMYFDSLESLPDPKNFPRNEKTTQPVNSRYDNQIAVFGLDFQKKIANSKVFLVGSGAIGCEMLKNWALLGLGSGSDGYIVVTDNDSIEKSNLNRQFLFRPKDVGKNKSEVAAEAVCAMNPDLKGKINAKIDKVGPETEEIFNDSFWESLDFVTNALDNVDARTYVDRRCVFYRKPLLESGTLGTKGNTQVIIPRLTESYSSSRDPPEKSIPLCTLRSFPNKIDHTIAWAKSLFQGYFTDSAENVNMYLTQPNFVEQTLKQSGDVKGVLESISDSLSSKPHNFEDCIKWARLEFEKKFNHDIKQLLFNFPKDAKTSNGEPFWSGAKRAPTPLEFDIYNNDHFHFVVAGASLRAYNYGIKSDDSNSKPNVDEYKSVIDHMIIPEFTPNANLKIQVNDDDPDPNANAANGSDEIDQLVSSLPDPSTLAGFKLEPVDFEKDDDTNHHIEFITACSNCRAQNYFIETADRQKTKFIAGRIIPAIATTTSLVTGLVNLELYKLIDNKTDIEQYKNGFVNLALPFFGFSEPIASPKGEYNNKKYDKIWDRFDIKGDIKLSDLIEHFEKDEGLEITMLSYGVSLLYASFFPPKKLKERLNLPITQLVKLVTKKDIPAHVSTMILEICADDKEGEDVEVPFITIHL

E1-E2 thioester transfer assay: Ubc4 K4S (fold loss of activity) (S. pombe Uba1 (S. pombe)): 2
Molecule: Ubc4 K4S (from UniProt P46595 1-147) (enzyme)

E1-E2 thioester transfer assay (50 nM E1, 60 s): Ubc15 K12A (fold loss of activity) (S. pombe Uba1 (S. pombe)): 5
B1: Ubc15 K12A (enzyme)
chain: MPSSASEQLLRAQLKEIQKNPPQGFSVGLVDDKSIFEWEVMIIGPEDTLYEGGFFHATLSFPQDYPLMPPKMKFTTEIWHPNVHPNGEVCISILHPPGDDKYGYEDAGERWLPVHSPETILISVISMLSSPNDESPANIDAAKEFRENPQEFKKRVRRLVRRSIEMI

binding result [1]: binds
B2: S. cerevisiae Cdc34^Δdist (enzyme, UniProt P14682 1-195, looked up)
chain: MSSRKSTASSLLLRQYRELTDPKKAIPSFHIELEDDSNIFTWNIGVMVLNEDSIYHGGFFKAQMRFPEDFPFSPPQFRFTPAIYHPNVYRDGRLCISILHQSGDPMTDEPDAETWSPVQTVESVLISIVSLLEDPNINSPANVDAAVDYRKNPEQYKQRVKMEVERSKQDIPKGFIMPTSESAYISQSKLDEPES
modifications: in the crystal with Uba1: disulfide bond between the Uba1 and Cdc34 catalytic cysteines (cross-link)
notes: Cdc34, E2 ubiquitin-conjugating enzyme, S. cerevisiae; construct lacking CTD^dist (residues 196-295), made by a stop codon in Cdc34^FL; residues 3-102 and 112-181 built in the complex; Used here also as the wild-type Cdc34 of the thioester transfer assays with Uba1 mutants; also called ScCdc34^Δdist; source: E. coli BL21 (DE3) Codon Plus, purified
